Results published in the supplement of paper PMC10567573.

B1: NCK2 (parent)
chain: YTGPSSSGRFAGREWYYGNVTRHQ
B2: TPD52L1 (parent)
chain: ISKKFGDMSYSIRHSISMPAMRNS
B3: PTPN9 (parent)
chain: LKGAFPARLKKVLIVGAPIWFRVP

Variants of: B1
Assay: protein stability index of a GFP-peptide fusion (GPS, HEK-293T) (PSI 1-6); higher = more stable
Settings: c terminus: a fixed tail appended
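Also: lentivirally expressed fusions sorted by FACS into six bins by GFP to DsRed ratio, PSI derived from sequencing read proportions per bin multiplied by bin number.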

Protein stability index: each site, then its substitutions
Q24: P 2.07; W 2.83; R 1.55; S 2.25; V 2.17; N 1.62; T 1.18; Y 1.72

Variants of: B2
Assay: as above
Settings: c terminus: a fixed tail appended

Protein stability index: each site, then its substitutions
K4: E 2.33; I 1.98; V 2.01; A 2.35; Y 2.71; F 1.58; W 1.76; Q 2.09; N 2.13; M 2.1; P 2.48; G 2; S 2.71; T 2.48; R 2.65; D 2.47; H 2.57; L 1.52; C 2.36
K3: C 2.69; F 4.67; W 3.69; R 2.16; H 2.37; T 2.19; L 2.83; I 3.53; D 2.34; M 2.67; Q 2.25; E 2.62; N 2.5; G 2.25; A 1.57; Y 2.8; P 2.63; S 2.25; V 4.4
Y10: F 2.01; P 2.97; S 2.84; E 2.88; M 2.37; W 1.93; L 1.88; I 2.23; G 3.06; K 2.57; R 2.41; A 2.91; N 2.73; D 2.98; H 2.69; T 2.72; C 2.17; V 2.94; Q 2.76
I1: P 2.89; S 3.16; M 2.33; Y 1.54; A 2.58; W 2.2; C 2.26; K 2.17; R 2.16; H 2.42; T 2.9; F 1.88; N 2.87; V 3.17; E 2.9; D 3.33; L 2.23; Q 2.88; G 2.65
G6: A 1.65; Q 2.19; S 2.24; L 1.45; K 1.74; D 2.28; I 1.6; C 1.98; P 2.75; T 2.62; N 2.15; W 2.38; H 1.88; V 2.15; F 1.97; M 2.62; Y 1.86; E 2.31; R 2.35
S9: W 2.69; M 1.51; T 2; Y 1.98; E 2.34; H 2.38; I 2.59; P 2.03; G 2.27; V 2.03; R 2.22; F 2; L 1.42; D 2.36; Q 2.31; K 2.37; A 2.23; N 2.36; C 1.88
D7: A 2.15; Y 2.31; C 1.69; R 2.21; S 2.34; I 3.23; K 2.58; Q 2.04; M 1.51; E 2.22; N 1.67; T 1.54; L 1.78; P 2.14; F 1.7; H 1.77; V 1.82; G 1.68; W 1.9
S11: K 1.99; F 1.91; A 2.51; Q 2.22; I 2.03; Y 2.06; G 2.52; D 2.68; N 2.74; L 2.75; R 2.24; V 2.49; P 2.58; W 1.67; H 2.41; T 2.38; E 1.97; M 2.03; C 1.88
S2: R 2.54; V 2.34; W 1.83; E 2.83; M 1.75; A 2.41; D 2.94; Q 2.37; G 2.88; L 2.97; Y 1.74; N 2.37; K 2.74; C 1.82; H 2.11; I 2.97; T 2.21; P 2.89; F 1.74
I12: C 1.54; G 2.4; D 3.07; F 2.63; A 2.55; E 3.36
M8: K 2.48; F 2.19; I 2.13; G 2.31; S 2.4; A 2.87; P 3.46; Y 1.54; Q 2.85; V 2.38; W 2.42; N 2.88; L 2.27; R 2.53; T 2.33; E 3.18; C 1.96; H 2.33; D 2.78
F5: D 2.46; K 2.44; S 2.67; P 2.85; T 2.24; I 2.37; H 2.72; A 2.97; E 3.06; V 2.51; M 2.29; W 2.5; R 2.45; C 2.26; N 2.48; G 3.29; Q 2.78; L 1.78; Y 2.56

Variants of: B3
Assay: as above
Settings: c terminus: a fixed tail appended

Protein stability index of substitutions, site by site:
V15: T 2.46; D 2.44; W 1.27; K 1.37; F 2.48; Y 2.25; H 2.46; Q 1.55; S 1.37
P6: H 2.28; M 1.86
K2: F 1.26; N 2.18; R 3.96; L 3.37; A 2.1
L13: F 2.82; D 1.01; N 1.7; P 2.55; I 3.11
R22: D 1.87; P 3.02; G 2.34; H 2.47; L 4.03
K11: G 1.84; E 2.73; H 1.99; F 4.03; I 2.21
W20: F 2.45; S 2.41; K 2.56; E 3.74; H 4.59
A7: Q 2.24; V 2.57; F 3.16
I19: S 1.95; E 2.64; H 1; T 4.11
I14: A 4.13; N 1.37; E 1.09; R 2.87; D 1.46; P 2.98; L 2.73
P18: C 2.33; T 1.99; W 4.58; G 4.24
A4: I 3.45; D 3.24; F 2.49; L 3.88; Q 2.61
L9: V 4.71; K 2.57; F 1.64
P24: L 3.02; E 1.31; D 4.03; K 3.06
A17: L 3.42; T 4.8; F 2.16; K 2.28; N 2.61
V23: P 2.07; D 2.11
F5: I 3.12; L 3.82; T 2.25; P 2.49
R8: F 2.79; S 3.94; G 2.76; N 2.74; L 2.2; M 2.46; W 2.35
F21: R 2.39; N 2.65; L 1.57
K10: Y 2.2; S 3.47; Q 2.94
G3: S 3.35; A 2.89; K 3.39; D 3.16
L1: C 3.38; K 2.78; W 2.11; V 3.26; I 4.73; S 4.61
G16: I 1.57; P 5.02; F 2.2; R 3.43; W 1.74; N 2.29
V12: T 2.61; R 2.3; A 3.43; N 3.54; G 1.27
